The values that follow come from the nanobody polyreactivity screen of Harvey et al. (2022).

This data set can be described thus: yeast display, Sf9 membrane polyspecificity reagent, FACS + sequencing; frameworks hold sequencing errors. The gist of the method:
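Galactose induction of a Saccharomyces cerevisiae BJ5465 synthetic nanobody display library ran 36–48 hours. The cells were then stained for 1 hour at 4 °C with 10% biotinylated, detergent-solubilized Sf9 membrane reagent, pulled down on streptavidin microbeads and FACS-sorted into low and high (top ~1%) gates on expression and reagent-binding fluorescence. Labels for polyreactivity follow the gate of origin.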
Take “QVQLVESGGGLVQAGGSLRLSCAASGSTYQGYAMGWYRQAPGKERELVAAISGRSGSTYYADSVKGRFTISRDNAKNTVYLEMNSLKQEDTAVYYFNAVTGVNPSLDYWGQGTQVTVSS”: the “polyreactivity (PSR sort gate)” value is “high polyreactivity”. With “QVQLVESGGGLVQAGGSLRLSCAASGSTYRYVMGWYRQAPGKERELVAAITYTGGSTYYADSVKGRFTISRDNAKNTVYLQMNSLKPEDTAVYYCAASRYYTFDYWGQGTQVTVSS” the entry was “high polyreactivity”; with “QVQLVESGGGLVQAGGSLRLSCAASGSTYSYYAMGWYRQAPGKERELVAAITSSGSSTYYADSVKARFTISRDNAKNTVYLPMISLKPEDPAVYYCAAGRYRYTYRYFTAWYGYWGQGTQVTVSS”, “high polyreactivity”.

As for “QVQLVESGGGLVQAGGSLRLSCAASGSTYYANAMGWYRQAPGKEREFVATISSSDGSTYYADSVKGRFTISRDNAMNTVYLQMYSLKPEDTAVYYCNAADYPEAHSTYYYWGQGTLVTVSS”, the “polyreactivity (PSR sort gate)” value is recorded as “low polyreactivity”. Then “QVQLVESGGGLVQAGGSLRLSCAASGSTYYNAMGWSRQAPGNERELVAAIRFRSGSTYYADSVKGRFTISRDNAKNTVYLQMNSLTPEDTAVYYCAADNKRSWRYAYNYWGQGTQVTVSS”, with “high polyreactivity”; and “QVQLVESGGGLVQAGGSLRLSCAASGSTYYNAMGWYRQAPGKERELVAAIRFRSGSTYYADSVKGRFTISRDNAKNTVYLQMNSLKPEDTAVYYCAADNKRSWRYAYNYWGQGTQVTVSS”, with “high polyreactivity”. With “QVQLVESGGGLVQAGGSLRLSCAASGTFFGYAMGWYRQAPGKERELVAAITSGGSTYYADSVKGRFTISRDNAKNTVYLQMNSLKPEVTAVYYCARVYSRWSYRYDYWGQGTQVTVSS” the entry was “low polyreactivity”. With “QVQLVESGGGLVQAGGSLRLSCAASGTFFIYAMGWYRQAPGKERELVATISSGGSTNYADSVKGRFTISRDNAKNTVYLQMNSLKPEDTAVYYCAAEWLYPHDGGYPRPMDYWGQGTQVTVSS” the entry was “low polyreactivity”; with “QVQLVESGGGLVQAGGSLRLSCAASGTFFIYAMGWYRQAPGKERELVATISTGGSTNYADSVKGRFTISRDNAKNTVYLQMNSLKPEDTAVYYFAAEWLYPHDGGYPRPMDYWGQGTQVTVSS”, “low polyreactivity”; with “QVQLVESGGGLVQAGGSLRLSCAASGTFGVYAMGWYRQAPGKERELVAVITDSGGTNYADSVKGRFTISRDNAKNTVYLQMNSLKPEDTAVYYCNTDAGDYYGENYWGQGTQVTVSS”, “low polyreactivity”. For the sequence “QVQLVESGGGLVQAGGSLRLSCAASGTFSNYAMGWYRQAPGKERELVAGISKRGGSTYYADSVKGRFTISRDNAKNTVYLQMNSLKPEDTAVYYCRVYAYDYWGQGTQVTVSS”, the “polyreactivity (PSR sort gate)” value was “low polyreactivity”. With “QVQLVESGGGLVQAGGSLRLSCAASGTFSSYAMGWYRQAPGKERELVAAITNGGNTNYADSVKGRFTISRDNAKNTVYLQMNSLKPEDTAVYYCNARYGNESQGWEDYWGQGTQVTVSS” the entry was “low polyreactivity”; with “QVQLVESGGGLVQAGGSLRLSCAASGTFTRNVMGWYRQAPGKERELVAAIDNGSSTNYADSVKGRFTISRDNAKNTVYLQINSQKPEDTAVYYCANERPRSAGSAASIEQQMDYWGQGTQVTVSS”, “low polyreactivity”. Then “QVQLVESGGGLVQAGGSLRLSCAASGTFTVNTMGWYRQAPGKERELVAAISTGDTTTYADSVKGRFTISRDNAKNTVYLQMNSLKPEDTAVYYCNVDIGVYAYESDYWGQGTQVTVSS”, with “low polyreactivity”. Then “QVQLVESGGGLVQAGGSLRLSCAASGTFYGYAMGGYRQSPGKERELVAAITWSGGSTYYADSVKGRFTISRDNAKNTVYLQMNSLKPEDTAVYYCAASLYSGYDSWGQGTQVTVSS”, with “low polyreactivity”; and “QVQLVESGGGLVQAGGSLRLSCAASGTFYYYAMGWYRQAPGKERELVAAISNGDSTTYADSVKGRFTISRDNAKNTVYLQMTSLKPEDTAVYYCAAYRYTPRTSRGYYYWGQGTQVTVSS”, with “low polyreactivity”. Turning to “QVQLVESGGGLVQAGGSLRLSCAASGTIFDYNAMGWYRQAPGKERELVAAISWRGGTTYYADSVKGRFTISRDNAKNTVYLQMNSLKPEDTAVYYCAAGRRGVYHGGYWGQGTQVTVSS”, the “polyreactivity (PSR sort gate)” value was “high polyreactivity”. With “QVQLVESGGGLVQAGGSLRLSCAASGTIFFGNTMGWYRQAPGKERELVAVITSSGGRTFYADSVKGRFTISRDNAKNTVYLHMNSLKPEDTAVYYCAAGHGFYYFTPTHDSWGQGTQVTVSS” the entry was “high polyreactivity”; with “QVQLVESGGGLVQAGGSLRLSCAASGTIFGGYGRGWYRQAPGKERELVAAITSGSSTYYADSVKGRFTISRDNAKNTVYLQMNSLKPEDTAVYYCAARPFPHSAYEGDYWGRGTQVTVSS”, “low polyreactivity”; with “QVQLVESGGGLVQAGGSLRLSCAASGTIFGKYAMGWYRQAPGKERELDAAISRAGGRTYYADSVKGRFTISRDNAKNTVYLQMNSLIPEDTAVYYCNAGNLHSGGQRWNLYYWGQCTQVTVSS”, “high polyreactivity”. With “QVQLVESGGGLVQAGGSLRLSCAASGTIFSVNAMGWYRQRLGKKGSWWPLFLTLLPSTYYADSVKARFTISRDNAKNTVYLQMNSLKPEDTAVYYCNAVYSVDFPTPTSDGDPDGFDYWGQGTQVTVSS” the entry was “low polyreactivity”. With “QVQLVESGGGLVQAGGSLRLSCAASGTIFTHNAMGWYRQAAGKEREFVAAISSGGSTNYADSVNGRFTISRDNAKNTVYLQMNSLKPQDTAVYYCAKSIDGWYWRRRRYDYWGHGTQVTVSS” the entry was “low polyreactivity”. As to “QVQLVESGGGLVQAGGSLRLSCAASGTIFYIYAMGWYRQAPGKERELVAAITWRGGRTYYADSVKGRFTISRDNAKNTVYLQMNSLKPEDTAVYYCAALYANYYYRYEYWGQGTQVTVSS”, the “polyreactivity (PSR sort gate)” value is on record as “high polyreactivity”. In the case of “QVQLVESGGGLVQAGGSLRLSCAASGTLRYYAMGWYRQAPGKERELVAAISKSGGRTYYADSVKGRFTISRDNAKNTVYLQMNSLKPEDTAVYYCAARGWTANYEMDHWGQGTQVTVSS”, the “polyreactivity (PSR sort gate)” value is recorded as “high polyreactivity”. Consider “QVQLVESGGGLVQAGGSLRLSCAASGTLYINVMGWYRQAPGKERELVAAISSNGARTYYADSVKGRFTISRDNAKNTVYLQMNSLKPEDTAVYYCNRVASVRARDYDYWGQGTQVTVSS”, for which the “polyreactivity (PSR sort gate)” value is reported as “high polyreactivity”. Then “QVQLVESGGGLVQAGGSLRLSCAASGTMGWYRQAPGKERELVAAISSSDRTSYADSVKGRFTISRDNAKNTVYLQMNSLKPEDTAVYYCNASTVFAWRTTTLKLFYTAHDYWGQGTQVTVSS”, with “low polyreactivity”. With “QVQLVESGGGLVQAGGSLRLSCAASGTTFAWNTMGWYRQAPGKERELVARISRRSVSTYYADSVKGRFTISRDNAKNTVYLQMNSLKPEDTAVYYCAADYFSYQKYDYWGQGTQVTVSS” the entry was “low polyreactivity”; with “QVQLVESGGGLVQAGGSLRLSCAASGTTFVIYAKGWYRQAPGKERELVASISGSGGSTFYADSVKGRFTISRDNAKITVYLQMNSLKPEDTAVYYCAAAVGVGRSGGTYDYWGQGTQVTVSS”, “low polyreactivity”; with “QVQLVESGGGLVQAGGSLRLSCAASGTTISNYAMGWYRQAPGKERELVAGIDWSGGSTYYADSVKGRFTISRDNAKNTVYLHMNSLKPEDTAVYYCAKRVWYHGRKLRGYYWGQGTQVTVSS”, “low polyreactivity”. For the sequence “QVQLVESGGGLVQAGGSLRLSCAASGTTLYWNAMGWYRQAPGKERELVAAISRSGGSTYYADSVKGRFTISRDNAKNTVYLQMNSLKPEDTAVYYCAARRYVPHTEYYYWGQGTQVTVSS”, the “polyreactivity (PSR sort gate)” value is “low polyreactivity”. Then “QVQLVESGGGLVQAGGSLRLSCAASGTTSPNAMGWYRQAPGKERELVAAMWSGGTYYADSVKGRFTISRDNAKNTVYLQMNSLKPEDTAVYYCAADGEFRRAWYEGDYWGQGTQVTVSS”, with “low polyreactivity”; and “QVQLVESGGGLVQAGGSLRLSCAASGVIFSFYAMGWDREAPGKERELVAAISSSGSTNYADSVKGRFTISRDNAKNTVYLQMNSLKPEDTAVYYCNTYFRYFSFYGRPFDYWGQGTQVTVSS”, with “high polyreactivity”. In the case of “QVQLVESGGGLVQAGGSLRLSCAASGVTFRLDAMGCYRQAPGKDRELVAAISRSGTSTYYADSVKGRFTISRDNPKNTVYLHMNTRKPDDTAVYYCNTARYRYAWYTRYVSWGQGTQVTVSS”, the “polyreactivity (PSR sort gate)” value is recorded as “high polyreactivity”.

As to “QVQLVESGGGLVQAGGSLRLSCAASGYAMGWYRQAPGKERELVAAISWSGDITYADSVKGRFTISRDNAKNTVYLQMNSLKPEDTAVYYCNADRYTGRDGEQSLDYWGQGTQVTVSS”, the “polyreactivity (PSR sort gate)” value is listed as “low polyreactivity”. Regarding “QVQLVESGGGLVQAGGSLRLSCAASGYDMGWYRQAPGKERELVAAISRGGSTSYADSVKGRFTISRENAKNTVYLQMNSLKPEDTAVYYCAARYGSYRVGYDYWGQGTQVTVSS”, the “polyreactivity (PSR sort gate)” value is on record as “low polyreactivity”. Then “QVQLVESGGGLVQAGGSLRLSCAASGYIFAENAMGWYRQAPGKERELVATITYIGGSTHYADSVKGRFTISRDNAKNTVYLQMNSLKPEDTAVYYCNADNSTYYRSDFGYWGQGTQVTVSS”, with “low polyreactivity”; and “QVQLVESGGGLVQAGGSLRLSCAASGYIFAVYAMGWYIQAPGKEREFVAVITWRGGSTYYADSVKGRFTISRDNAKNTVYLHMNSLKPEDTAVYYCAADVYAQYDYWGQGTQVTVSS”, with “high polyreactivity”; and “QVQLVESGGGLVQAGGSLRLSCAASGYIFDFYDMGWYRQAPGKERELVAAITSGGSTNYADSVKGRFTISRDNAKNTVYLQMNSLKPEDTAVYYCAASFVGHIYWGARVPYYYNHDYWGQGTQVTVSS”, with “high polyreactivity”.

“QVQLVESGGGLVQAGGSLRLSCAASGYIFDHYAMGWYRQAPGKEREFVAAISRSAGSTYYADSVKGRFTISRDNAQNTVYLQMNSLKPEDTAVYYCNAVVAVRSWRKYEYWGQGTQVTVSS”: the “polyreactivity (PSR sort gate)” value is listed as “high polyreactivity”.

With “QVQLVESGGGLVQAGGSLRLSCAASGYIFDIYAMGWYRQAPGKEMQLVAVITRSGGGTYYADSVKGRFTISRDNAKNTVYLQMNSLKPEDTAVYYCAAESFVYGGSDYDYWGQGTQVTVSS”, the “polyreactivity (PSR sort gate)” value was “low polyreactivity”. With “QVQLVESGGGLVQAGGSLRLSCAASGYIFDRNAMGWYRQAPGKERELVAAITKRGGITYYADSVKGRFTISRDNAKNTVYLQMNSLKPEDTAVFYWNALARSSRYDYWGQGTQVTVSS” the entry was “high polyreactivity”.
